Drawing on patent US20220259593A1, “CONTROL OF MAMMALIAN GENE DOSAGE USING CRISPR” (The Regents of the University of California, priority 2019, published 2022), this text covers Mean relative activity for 29 molecules.

This data set relates to K562 CRISPRi cells. The experiment in a line: Constant region variant library pooled growth screen, K562. Type of data set: cell-based, human. In short, it runs like this: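 Library of sgRNA constant-region variants, each paired with 36 targeting sequences (essential-gene and non-targeting), transduced in duplicate into K562 CRISPRi cells, puromycin-selected and grown 4–8 days at >2000× coverage. Activity per variant is its growth phenotype normalised to the same targeting sequence with unmodified constant region.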

[1] abbreviates: sgRNA constant region variant, activity relative to unmodified constant region cr995, mean CRISPRi activity.
[2] abbreviates: sgRNA constant region variants, activity relative to the original, un-modified constant region cr995.

B1: cr250 (nucleic acid)
guide: GTTTAAGAGCTAAGCTGGAAACAGCATAGCAAGTTTAAATAAGGCTAGACCGTTATCAACTTGAAAAAGTCGCACCGAGGCGGTGCT
modifications: listed as DNA, chemistry not fully specified
Take B1: the Mean relative activity under setting [1] worked out at 0.01012.

B2: cr295 (nucleic acid)
guide: GTTTAAGAGCTAAGCTGGAAACAGCATAGCAAGGTTAAATAAGGCTAGTCCGTTATCAACTTGAAAAAGTGGGACCGAGTCGGTCCT
modifications: listed as DNA, chemistry not fully specified
Under setting [1], B2 displayed a Mean relative activity of 0.008268.

B3: cr415 (nucleic acid)
guide: GTTTAAGAGCTAAGCTGGAAACAGCATAGCAAGTTTAAATAAGGCTAGTCCCTTATCAACTTGAAATAGTGGCACCGAGTCGGTGCT
modifications: listed as DNA, chemistry not fully specified
Under setting [1], B3 had a Mean relative activity of 0.007281.

B4: cr587 (nucleic acid)
guide: GTTTAAGAGCTAAGCTGGAAACAGCATAGCAAGTTTAAATAAGCCTAGTCCGTTATCAACTTGAAAAAGTGGCACCGAGTCGGTGCT
modifications: listed as DNA, chemistry not fully specified
For B4, under setting [1], the Mean relative activity stood at 0.009805.

B5: cr137 (nucleic acid)
guide: GTTTAAGAGCTAAGCTGGAAACAGCATAGCAAGTTTAAATAGGGCTAGTCCTTTATCAACTTGCAAAAGTGGCACCGAGTCGGTGCT
modifications: listed as DNA, chemistry not fully specified
As to B5, the Mean relative activity under setting [1] is 0.008516.

B6: cr160 (nucleic acid)
guide: GTTTAAGAGCTAAGCTGGAAACAGCATAGCAATCTTAAATAAGGCTAGTCCGTTATCAACTTGAAAAAGTGGCACCGAGTCGGTGCT
modifications: listed as DNA, chemistry not fully specified
B6 registered a Mean relative activity under setting [1] of 0.007879.

B7: cr067 (nucleic acid)
guide: CTTGAAGAGCTAAGCTGGAAACAGCATAGCAAGTTTAAATAAGGCTAGTCCGTTATCAACTTGAAAAAGTGGCACCGAGTCGGTGCT
modifications: listed as DNA, chemistry not fully specified
Turning to B7, the Mean relative activity under setting [1] was 0.01012.

B8: cr114 (nucleic acid)
guide: GTTTAAGAGCTAAGCTGGAAACAGCATAGCAAGTTTAAATAATGTTAATCAGTTATCAACTTGAAAAAGTGGCCCCGAGTCGGGGCT
modifications: listed as DNA, chemistry not fully specified
Turning to B8, under setting [1], the Mean relative activity turned out to be 0.008589.

B9: cr052 (nucleic acid)
guide: ATGTAAGAGCTAAGCTGGAAACAGCATAGCAAGTTTAAATAAGGCTAGTCCGTTATCAACTTGAAAAAGTGGCACCGAGTCGGTGCT
modifications: listed as DNA, chemistry not fully specified
Under setting [1], B9 yielded a Mean relative activity of 0.009238.

B10: cr054 (nucleic acid)
guide: GTTTAACCGCTAAGCTGGAAACAGCATAGCAAGTTTAAATAAGGCTAGTCCGTTATCAACTTGAAAAAGTGGCACCGAGTCGGTGCT
modifications: listed as DNA, chemistry not fully specified
B10 gave a Mean relative activity under setting [2] of 1.032.

B11: cr436 (nucleic acid)
guide: GTTTAAGAGCTAAGCTGGAAACAGCATAGCAAGGTTAAATAAGGCTAGTCCGTTATCATCTTGAAAAAGAGGCACCGAGTCGGTGCT
modifications: listed as DNA, chemistry not fully specified
Turning to B11, the Mean relative activity under setting [1] was 0.008129.

B12: cr795 (nucleic acid)
guide: GTTTAAGAGCTAAGCTGGAAACAGCATAGCAAGTTTAAATAATGCTAGTCAGTTATCAACTTGAAAAAGTGTCTCCGAGTCGGAGAT
modifications: listed as DNA, chemistry not fully specified
As to B12, the Mean relative activity under setting [1] is 0.009911.

B13: cr778 (nucleic acid)
guide: GTTTAAGAGCTAAGCTGGAAACAGCATAGCAAGTTTAAATAAGGCTAGTCGGTTATCAACTTGAAAAAGTGGCACCGAGTCGGTGCT
modifications: listed as DNA, chemistry not fully specified
Turning to B13, the Mean relative activity under setting [1] is 0.0072.

B14: cr455 (nucleic acid)
guide: GTTTAAGAGCTAAGCTGGAAACAGCATAGCAAGTTTAAATAAGGCTAGTCCGTTATCAATTGGAAACAATGGCACCGAGTCGGTGCT
modifications: listed as DNA, chemistry not fully specified
Take B14: the Mean relative activity under setting [2] came to 1.031.

B15: cr512 (nucleic acid)
guide: GTTTAAGAGCTAAGCTGGAAACAGCATAGCAAGGTTAAATAAGCCTAGTGCGTTATCAACTTGAAAAAGTGGCACCGAGTCGGTGCT
modifications: listed as DNA, chemistry not fully specified
Under setting [1], B15 showed a Mean relative activity of 0.007414.

B16: cr081 (nucleic acid)
guide: ATTAAAGAGCTAAGCTGGAAACAGCATAGCAAGTTTAAATAAGGCTAGTCCGTTATCAACTTGAAAAAGTGGCACCGAGTCGGTGCT
modifications: listed as DNA, chemistry not fully specified
The molecule B16 had a Mean relative activity under setting [1] of 0.009207.

B17: cr499 (nucleic acid)
guide: GTTTAAGAGCTAAGCTGGAAACAGCATAGCAACTTTAAATAAGGCTAGTCCGATATCAACTTGAAAAAGTGGCACCGAGGCGGTGCT
modifications: listed as DNA, chemistry not fully specified
As for B17, the Mean relative activity under setting [1] was determined as 0.007257.

B18: cr664 (nucleic acid)
guide: GTTTAAGAGCTAAGCTGGAAACAGCATAGCAACCTTAAATAAGGCTAGTCCGTTATCAACTTGAAAAAGTGGCACCGAGTCGGTGCT
modifications: listed as DNA, chemistry not fully specified
Under setting [1], B18 gave a Mean relative activity of 0.007435.

B19: cr376 (nucleic acid)
guide: GTTTAAGAGCTAAGCTGGAAACAGCATAGCAACTTTAAATAAGGCTAGTCCGTTATCAACTTGAAAAAGTGGCACGGAGTCCGTGCT
modifications: listed as DNA, chemistry not fully specified
Take B19: the Mean relative activity under setting [1] stood at 0.006963.

B20: cr339 (nucleic acid)
guide: GTTTAAGAGCTAAGCTGGAAACAGCATAGCAAGTTTAAATAACCCTAGTGGGTTATCAACTTGAAAAAGTGGCACCGAGTCGGTGCT
modifications: listed as DNA, chemistry not fully specified
Molecule B20 displayed a Mean relative activity under setting [1] of 0.00717.

B21: cr883 (nucleic acid)
guide: GTTTAAGAGCTAAGCTGGAAACAGCATAGCAAGTTTAAATAGGGCTAGTCGGTTATCAACTTGAAAAAGTGGCACCGAGTCGGTGCT
modifications: listed as DNA, chemistry not fully specified
The molecule B21 yielded a Mean relative activity under setting [1] of 0.006975.

B22: cr247 (nucleic acid)
guide: GTTTAAGAGCTAAGCTGGAAACAGCATAGCAATTTTAAATAAGGCTAGTCCGTTATCAACTTGAAAAAGTAGCACCGAGTCGGTGCT
modifications: listed as DNA, chemistry not fully specified
The molecule B22 returned a Mean relative activity under setting [1] of 0.007159.

B23: cr993 (nucleic acid)
guide: GTTTAAGAGCTAAGCTGGAAACAGCATAGCAACTTTAAATAAGGCTAGTCCGTTATCATCTTGAAAAAGAGGCACCGAGTCGGTGCT
modifications: listed as DNA, chemistry not fully specified
Under setting [1], B23 came in with a Mean relative activity of 0.00969.

B24: cr807 (nucleic acid)
guide: GTTTAAGAGCTAAGCTGGAAACAGCATAGCAAGTTTAAATTAGGCTAGTCCGTTATCAACTTGAAAAAGTGGCACCGTGTCGGTGCT
modifications: listed as DNA, chemistry not fully specified
In turn, B24 gave a Mean relative activity under setting [1] of 0.00776.

B25: cr187 (nucleic acid)
guide: GTTTAAGAGCTAAGCTGGAAACAGCATAGCAAGGTTAAATAAGGCTAGTCCGTTATCAACTTGAAAAAGTGGCACCAAGTTGGTGCT
modifications: listed as DNA, chemistry not fully specified
On to B25, for which, under setting [1], the Mean relative activity is 0.00928.

B26: cr130 (nucleic acid)
guide: GTTTAAGAGCTAAGCTGGAAACAGCATAGCATTTTTAAATAAGGCTAGTCCGTTATCAACTTGAAAAAGTGGCACCGAGTCGGTGCT
modifications: listed as DNA, chemistry not fully specified
Consider B26, for which the Mean relative activity under setting [1] is on record as 0.009507.

B27: cr862 (nucleic acid)
guide: GTTTAAGAGCTAAGCTGGAAACAGCATATCACCTTTAAATAAGGCTAGTCCGTTATCAACTTGAAAAAGTGGCACCGAGTCGGTGCT
modifications: listed as DNA, chemistry not fully specified
In the case of B27, the Mean relative activity under setting [1] amounted to 0.007887.

B28: cr648 (nucleic acid)
guide: GTTTAAGAGCTAAGCTGGAAACAGCATAGCAACTTTAAATAAGTCTAGTACGTTATCAACTTGAAAAAGTGGCACCGAGTCGGTGCT
modifications: listed as DNA, chemistry not fully specified
For the molecule B28, the Mean relative activity under setting [1] stood at 0.008305.

B29: cr328 (nucleic acid)
guide: GTTTAAGAGCTAAGCTGGAAACAGCATAGCAACTTTAAATAAGGCTAGTCCGTTATCAACTTGAAAAAGTGGCCCCGAGTCGGGGCT
modifications: listed as DNA, chemistry not fully specified
In turn, B29 yielded a Mean relative activity under setting [1] of 0.009384.
